Experimental data as given in the supplement of paper PMC10567573.
± gives the standard deviation.

Experiment: protein stability index of a GFP-peptide fusion (GPS, HEK-293T) (PSI 1-6); higher = more stable
[1] = treatment: DMSO, c terminus: a fixed tail appended
[2] = treatment: MLN4924 1 uM, 8 h, c terminus: a fixed tail appended
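Note: 24-mer peptide tiles fused after GFP, lentivirally expressed, FACS-sorted into six equal bins by GFP/DsRed ratio, decoded by Illumina sequencing, PSI is the read-weighted mean bin number.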

Sequence | protein stability index [1] | protein stability index [2] | protein stability index (treatment: DMSO, c terminus: native) | protein stability index (treatment: MLN4924 1 uM, 8 h, c terminus: native)
RPSSILPPRRGVSGDRDENSFSLN [MAP2] | 4.67 ± 0.09 | 4.63 ± 0.12 | – | –
RQILHLITMMALKVLGELNILPNT [TENT5D] | 3.42 ± 0.64 | 2.81 ± 0.1 | – | –
RRLRDMVERPHSGLPGKVFACLSV [KCNG1] | 2.47 ± 0.49 | 2.4 ± 0.49 | – | –
RRWGKRKNKPKMNYEKLSRGLRYY [ETS1] | 2.44 ± 0.33 | 2.68 ± 0.38 | – | –
RRWKLQVLDLRKNSHQDFWTVWSG [PRAME] | 2.46 ± 0.73 | 2.07 ± 0.44 | – | –
RSHPDNAIPIKSWFSDPSDTALLN [CTDNEP1] | 3.73 ± 0.18 | 3.87 ± 0.18 | – | –
RSSSCGDTELLGQATLPVGSPSRP [C2CD2L] | 5.04 ± 0.15 | 5.04 ± 0.13 | – | –
RSVIEVPAVPEEILKRLLKEQHLW [DLC1] | 2.48 ± 0.36 | 2.69 ± 0.37 | – | –
RSWAMLFASGGFQVKLYDIEQQQI [CRYL1] | 2.16 ± 0.34 | 2.28 ± 0.67 | – | –
RTAMPYGGYEKASKRMTFQMPKFD [MYOZ1] | 2.76 ± 0.18 | 2.86 ± 0.23 | – | –
RTARALLDRDALKQSLVVAVQDHG [PCDHGA10] | 3.72 ± 0.18 | 3.87 ± 0.34 | – | –
RTELLKDAIGEGKVTLRIRNVRFS [MOG] | 2.68 ± 0.4 | 2.79 ± 0.42 | – | –
RTHTGEKPYTCSVCGKSFSRTTCL [ZNF8] | 2.92 ± 0.31 | 3.35 ± 0.54 | – | –
RTISCHVQNGTYLQRVLQNCPWPM [EMID1] | 2.12 ± 0.22 | 2.02 ± 0.17 | – | –
RVKFKSQQHRQGRSHHLEMVIQLL [PTGFR] | 2.44 ± 0.19 | 2.21 ± 0.17 | – | –
RVLKAYTLYRPEEGYCQAQAPIAA [TBC1D10A] | 2.08 ± 0.29 | 2.16 ± 0.21 | – | –
RYSCESRIRSYLREVSSYPSTVGA [DFFB] | 2.6 ± 0.27 | 2.73 ± 0.46 | – | –
RYSGKILKNNETLVQHGVKPQEIV [IQUB] | 3.42 ± 0.21 | 3.71 ± 0.53 | – | –
RYVSNWDFFIVGCEVIFCVFIFYY [PKD2L1] | 3.07 ± 0.34 | 2.89 ± 0.32 | – | –
SAAYYLNDLDRIAQPNYIPTQQDV [GNAI1] | 3.7 ± 0.28 | 3.73 ± 0.24 | – | –
SACSFTNSDMQILTASGDGTCALW [GNB5] | 2.33 ± 0.27 | 2.15 ± 0.22 | – | –
SAPYSAAFLELPHGSGGSGYPAAP [TBX6] | 3.27 ± 0.15 | 3.55 ± 0.27 | – | –
SCLLLQLRREKPSEEMVKMVLSRP [INTS3] | 2.64 ± 0.67 | 2.42 ± 0.34 | – | –

Sequence | protein stability index [1] | protein stability index [2] | protein stability index (treatment: DMSO, c terminus: native) | protein stability index (treatment: MLN4924 1 uM, 8 h, c terminus: native)
SDHEMREEEKLKAEEIRIKGKYNI [KCNK9] | 5.11 ± 0.21 | 5.22 ± 0.3 | – | –
SDLLNDQDLLDVIRIKLDPCHPTV [EDARADD] | 2.67 ± 0.23 | 2.78 ± 0.21 | – | –
SEATLPAQMSTLHVSPPPSADPAR [PDLIM4] | 5.26 ± 0.17 | 5.17 ± 0.18 | – | –
SEDSFCRRHPGLGKAFPSGCSAVS [TRAF3IP2] | 3.66 ± 0.24 | 3.46 ± 0.33 | – | –
SEHFKTTSQKVARKFWWKNVKMIV [VAMP8] | 2.69 ± 0.24 | 2.61 ± 0.71 | – | –
SEKRRDPPNGPNLPMATVDIKNPE [WASL] | 5.35 ± 0.11 | 5.28 ± 0.17 | – | –
SFGNCTYNLTILDCLQGIRKGLQH [CDC14A] | 2.38 ± 0.36 | 2.33 ± 0.44 | – | –
SFSTGAGGWSNHHFCVILLGFLP [BET1L] | – | – | 2.99 ± 0.39 | 2.99 ± 0.53
SGRRGPPPPPRSRGPPRGLRGGRG [RBMX] | 4.87 ± 0.25 | 5.14 ± 0.3 | – | –
SHPRVQSGCDKEALLTGGGSENRN [RNF180] | 4.77 ± 0.31 | 4.65 ± 0.24 | – | –
SISEEGFHYLVFDLVTGGELFEDI [CAMK2B] | 2.32 ± 0.42 | 2.24 ± 0.4 | – | –
SISKLSPFSEFFKLRFNRKKKGMY [PWWP2B] | 2.06 ± 0.25 | 2.31 ± 0.19 | – | –
SKRKAETWKKNRRQLAYSTVGTPD [STK38L] | 4.02 ± 0.41 | 4.33 ± 0.5 | – | –
SKYQLSEAQLSLIRDIRRRGKNKM [NFE2L1] | 3.69 ± 0.28 | 3.9 ± 0.54 | – | –
SLCNLEESITSAGRDDLESFQLEI [FAM98B] | 3.26 ± 0.16 | 3.45 ± 0.19 | – | –
SLCVLVSTVGKLCRLINEDVNEQV [CEP70] | 3.25 ± 0.48 | 2.96 ± 0.21 | – | –
SLGSALKPGEGRSALFAGNEWRRP [TRIM29] | 3.46 ± 0.26 | 3.31 ± 0.21 | – | –
SLHKGAKRKGIKSSIGRLFGKKEK [PPFIA4] | 3.6 ± 0.46 | 3.73 ± 0.18 | – | –
SLIFSLKNEVGGLIKALKIFQEKH [TPH1] | 2.07 ± 0.23 | 2.75 ± 0.82 | – | –
SLKEEHRAYDLLRAASENSQDALR [IKZF1] | 4.32 ± 0.52 | 4.36 ± 0.34 | – | –
SLSNAVANTMEHLSLLDNNIPGNS [FBXO33] | 3.64 ± 0.092 | 3.94 ± 0.28 | – | –
SMKGSCGIGGGIGGGSSRISSVLA [KRT16] | 2.54 ± 0.42 | 2.64 ± 0.33 | – | –
SMNWGINLLISLTFLTVTDLIGLP [SLC2A12] | 3.3 ± 0.18 | 3.02 ± 0.12 | – | –

Sequence | protein stability index [1] | protein stability index [2] | protein stability index (treatment: DMSO, c terminus: native) | protein stability index (treatment: MLN4924 1 uM, 8 h, c terminus: native)
SMSTRRLGVAVAVLGGFLYAVGGS [KLHL20] | 2.29 ± 0.42 | 2.67 ± 1.2 | – | –
SNFNYFYHRETEGEEQAQLLHVSS [KCNA1] | 3.95 ± 0.12 | 4.03 ± 0.34 | – | –
SNHSWNTQTWCTQSWNNQAWNSPF [NANOGP8] | 2.24 ± 0.23 | 2.19 ± 0.18 | – | –
SNVSSSGSINLLESPQLATLAEDV [MAP2] | 5.03 ± 0.22 | 5.17 ± 0.24 | – | –
SPDILEEKHCEFKQLALDHFKKTK [ATL3] | 4.79 ± 0.23 | 4.79 ± 0.12 | – | –
SPPDQPAVPHPPPSTPIKLEEGDG [ADD1] | 5.56 ± 0.2 | 5.62 ± 0.18 | – | –
SPPSSSAASSYSFSDLNSTRGDAD [EMD] | 5.12 ± 0.29 | 4.98 ± 0.2 | – | –
SQEESEEGEEDATSEVDKRRTRPR [CHGB] | 5.57 ± 0.33 | 5.59 ± 0.2 | – | –
SRQLLPGDEFSLREHELLCRADHG [ISL2] | 4.19 ± 0.17 | 4.27 ± 0.089 | – | –
SRVLQNGGDKLETMPLYLEDDIRP [SCD] | 4.66 ± 0.23 | 4.53 ± 0.21 | – | –
SSAVSGVKEWFGLGGEQAEEKAFE [MIA2] | 5.09 ± 0.43 | 5.04 ± 0.19 | – | –
SSDSVGGFRYSERYDPEPKSKWDE [CLINT1] | 4.98 ± 0.29 | 4.95 ± 0.091 | – | –
SSFFFSGVFVGVISFGQLSDRFGR [SLC22A15] | 2.96 ± 0.94 | 3.021 ± 0.018 | – | –
SSGKNVTLLVCGKKAYDYFQAKKI [PDZK1] | 2.13 ± 0.26 | 2.57 ± 0.82 | – | –
SSGPGNSQNSFLVQEVMEEEWNAL [RPAIN] | 4.88 ± 0.2 | 4.92 ± 0.25 | – | –
SSMKKFCRPLLPSCTTRLCQEEQL [PSD2] | 2.88 ± 0.29 | 2.98 ± 0.15 | – | –
SSQKQHSFTSSDKTIKSFFPHSGK [C8orf76] | 3.9 ± 0.085 | 4.15 ± 0.14 | – | –
SSRGAPRGGGRGGSRSDRGGGRSR [RBMX] | 5.34 ± 0.18 | 5.45 ± 0.28 | – | –
SSSSGVLMVGPNFRVGKKIGCGNF [CSNK1G3] | 2.71 ± 0.38 | 2.71 ± 0.21 | – | –
SSSYSPETFRQQFRQFGYQDSPGP [ZNF396] | 3.48 ± 0.23 | 3.24 ± 0.21 | – | –
SSTLNPSTSSSTQGDPAFPEMNGN [NOL4L] | 5.44 ± 0.25 | 5.44 ± 0.2 | – | –
SSWPFSIQDVVQPLTLQVQRPLVS [AUP1] | 2.77 ± 0.32 | 3.03 ± 0.2 | – | –
STHQEAENEKDRADQTVLTEDEKK [CHGB] | 5.35 ± 0.48 | 5.83 ± 0.091 | – | –

Sequence | protein stability index [1] | protein stability index [2] | protein stability index (treatment: DMSO, c terminus: native) | protein stability index (treatment: MLN4924 1 uM, 8 h, c terminus: native)
STRPEEGCSLHEEDTQRHETYHQQ [TCAP] | 5.47 ± 0.21 | 5.47 ± 0.2 | – | –
SVAVAARHAQTISGHALRILIVDW [HDAC6] | 2.82 ± 0.73 | 2.62 ± 0.63 | – | –
SVILSVKFSPFGQWWASVGMDDFL [TLE6] | 3.22 ± 0.46 | 3.02 ± 0.49 | – | –
SVWGYDLGLRSLIPAVLTVSMLGY [MYORG] | 3.05 ± 0.29 | 3.06 ± 0.4 | – | –
SWVLSMLYGFLLTFGFITMTPQLF [CLPTM1] | 3.21 ± 0.47 | 3.03 ± 0.16 | – | –
SYMLQDSLEHVQLFDLMRRMLEFD [CLK3] | 2.35 ± 0.027 | 2.47 ± 0.21 | – | –
TANTFRVMFKEPIEILPNVCYTAC [BTBD1] | 2.46 ± 0.44 | 2.18 ± 0.3 | – | –
TAQSTFNDLQDLREQILRVKDTDD [RAP1B] | 5.01 ± 0.31 | 4.97 ± 0.27 | – | –
TDFKDKIVLDVGCGSGILSFFAAQ [CARM1] | 2.3 ± 0.43 | 2.27 ± 0.27 | – | –
TDSPWIKPARKRRRRSRKKPSGAL [EHMT1] | 5.2 ± 0.39 | 5.22 ± 0.47 | – | –
TEALGCDPPLSQDERTHRSDRPFK [ZNF8] | 5.39 ± 0.28 | 5.26 ± 0.16 | – | –
TEPETAPTTEPETEPEDDRGPVVP [GNAS] | 5.61 ± 0.14 | 5.63 ± 0.27 | – | –
TFHDSKHNIVHVHFDATRGWLLTS [WDFY2] | 2.44 ± 0.31 | 2.17 ± 0.13 | – | –
TFKSFEDRVGTIKSKVVGDRENGS [TPD52L2] | 4.65 ± 0.062 | 4.7 ± 0.29 | – | –
TFRVSSDLIKHQRIHTEEKPYKCQ [ZNF75A] | 3.67 ± 0.15 | 3.8 ± 0.23 | – | –
TFVNVYIASFIRGPNPSKLIQQFL [CDS2] | 2.4 ± 0.65 | 2.73 ± 0.6 | – | –
TGFLIIILAIIAKEGDCAPEEKIW [MAGEA6] | 2.93 ± 0.65 | 2.71 ± 0.61 | – | –
TGPAWNVLMWTMLFLGQGIQVSLY [SOAT2] | 3.38 ± 0.42 | 3.26 ± 0.34 | – | –
TGVVEFVRKEDMTYAVRKLDNTKF [SRSF1] | 3.02 ± 0.3 | 3.26 ± 0.29 | – | –
THADMDGKRTPRGRRGWKKFYAVL [PSD2] | 2.65 ± 0.15 | 2.9 ± 0.11 | – | –
